Laboratory results as given in patent US20260242839A1, “GLYCOSIDE PRODUCT BIOSYNTHESIS AND RECOVERY” (Manus Bio Inc., priority 2023, published 2026).

Tests used:
Assay type in all cases: cell-based, E. coli
[1] = tested on: steviol glycoside; experiment: steviol glycoside bioconversion with complemented sucrose synthases in chassis strain; conditions: chassis strain with UGT SEQ ID NOS: 15 and 25, stevia leaf extract, glucose fed, 37° C., 48 hr, FIG. 3
Source text: Strains were created that expressed candidate sucrose synthase enzymes, which may improve UDP-glucose availability when fed sucrose. Expression of a sucrose synthase enables splitting of sucrose into fructose and glucose. Glucose can be funneled towards UDP-glucose biosynthesis. […] Genes were complemented on plasmid. Fold improvement is with respect to total steviol glycoside conversion. Stevia leaf extract, sucrose, and glucose were fed to the bioconversion strains. Bioconversion took place at 37° C. for 48 hr. Data were quantified by reverse phase LC DAD to quantify conversion of steviol glycosides.

[2] = tested on: steviol glycoside; experiment: steviol glycoside bioconversion with overexpressed genes complemented on plasmid; conditions: chassis strain with UGT SEQ ID NOS: 14 and 24; stevia leaf extract and glucose fed; 37° C., 48 hr; FIG. 2
Method: Other bacterial genes were overexpressed, and bioconversion tested as compared to the chassis strain expressing UGT enzymes of SEQ ID NOS: 14 and 24. […] Fold improvement is with respect to total steviol glycoside conversion. Stevia leaf extract and glucose were fed to the bioconversion strains. Bioconversion took place at 37° C. for 48 hr. Data were quantified by reverse phase LC DAD to quantify conversion of steviol glycosides.

[3] = tested on: Mog. II-E; experiment: production of Mog.III or siamenoside from Mog. II-E; conditions: 37° C., 48 hr; FIG. 19
Method: II-E. In the experiment, engineered E. coli strains expressing UGT enzymes SEQ ID NO: 72, SEQ ID NO: 54 or SEQ ID NO: 13 were grown in fermentation media containing Mog. II-E at 37° C. for 48 hr. Products were quantified by LCMS/MS with authentic standards of each compound. […] IIE to Mog.III.

[4] = tested on: Mog. IIE or Mog. IE; experiment: branched glycosylation reactions by cells expressing UGT enzymes; conditions: Mog. IIE or Mog. IE fed; 37° C., 48 hr; LC-MS/MS
Method: Mog. IIE or Mog. IE was fed to cells expressing various UGT enzymes. Reactions were incubated at 37° C. for 48 hr. Products were quantified by LC-MS/MS with authentic standards of each compound. “Indirect” evidence means that consumption of substrate was observed.

Q: “SEQ ID NO: 2: sucrose synthase, Solanum tuberosum (StSus2)” was tested. Which “improvement of total steviol glycoside conversion by sucrose synthase” value (“improvement … by sucrose synthase” for short) [1] did it give?
A: dramatic improvements in glycosylation

Q: How did the “improvement … by sucrose synthase” value [1] turn out when “SEQ ID NO: 3: sucrose synthase, Solanum tuberosum (StSus2_S11E)” was run?
A: dramatic improvements in glycosylation

Q: Which “improvement … by sucrose synthase” value [1] does the source give for “SEQ ID NO: 6: sucrose synthase, Arabidopsis thaliana (AtSus1)” here?
A: dramatic improvements in glycosylation

Q: Which “improvement … by sucrose synthase” value [1] does the source give for “SEQ ID NO: 7: sucrose synthase, Arabidopsis thaliana (AtSus3)” here?
A: dramatic improvements in glycosylation

Q: Which “improvement … by sucrose synthase” value [1] does the source give for “SEQ ID NO: 8: sucrose synthase, Vigna radiate (VrSS1)” here?
A: dramatic improvements in glycosylation

Q: Which “improvement … by sucrose synthase” value [1] does the source give for “SEQ ID NO: 9: sucrose synthase, Vigna radiate (VrSS1_S11E)” here?
A: dramatic improvements in glycosylation

Q: Which “improvement … by sucrose synthase” value [1] does the source give for “SEQ ID NO: 10: sucrose synthase, Glycine Max (GmSS)” here?
A: dramatic improvements in glycosylation

Q: With “SEQ ID NO: 11: sucrose synthase, Glycine Max (GmSS_S11E)” as the molecule, how does the “improvement … by sucrose synthase” value [1] read?
A: dramatic improvements in glycosylation

B1: ugpA: Bifidobacterium bifidum ugpA, complemented on plasmid (protein, listed as Bifidobacterium bifidum)
chain: MAFAEDLKRTEKMTVDDVFEQSAQKMREQGMSEIAISQFRHAYHVWASEKESAWIREDTVEPLHGVRSFHDVYKTIDHDKAVHAFAKTAFLKLNGGLGTSMGLQCAKSLLPVRRHKARQMRFLDIILGQVLTARTRLNVPLPVTFMNSFRTSDDTMKALRHQRKFKQTDIPLEIIQHQEPKIDAATGAPASWPANPDLEWCPPGHGDLFSTLRESGLLDTLLEHGFEYLFISNSDNLGARPSRTLAQYFEDTGAPFMVEVANRTYADRKGGHIVRDTATGRLILREMSQVHPDDKDAAQDIAKHPYFNTNNIWVRIDVLRDMLAEHDGVLPLPVIINNKTVDPIDPQSPAVVQLETAMGAAIGLFEGAICVQVDRMRFLPVKTTNDLFIMRSDRFHLTDSYEMEDGNYIFPNVDLDPRYYKNIEDFNERFPYNVPSLAAANSVSIKGDWTFGRDVIMFADARLEDRNEPSYVPNGEYVGPMGIEPGDWV
Q: Which “improvement of total steviol glycoside conversion by gene complementation” value (“improvement … by gene complementation” for short) [2] does the source give for B1 here?
A: improved overall glycosylation

B2: ycjU: E. coli ycjU (β-phosphoglucomutase), complemented on plasmid (protein, listed as Escherichia coli)
chain: MKLQGVIFDLDGVITDTAHLHFQAWQQIAAEIGISIDAQFNESLKGISRDESLRRILQHGGKEGDFNSQERAQLAYRKNLLYVHSLRELTVNAVLPGIRSLLADLRAQQISVGLASVSLNAPTILAALELREFFTFCADASQLKNSKPDPEIFLAACAGLGVPPQACIGIEDAQAGIDAINASGMRSVGIGAGLTGAQLLLPSTESLTWPRLSAFWQNV
Q: How did the “improvement … by gene complementation” value [2] turn out when B2 was run?
A: improved overall glycosylation

B3: ndk: E. coli ndk (nucleoside diphosphate kinase), complemented on plasmid (protein, listed as Escherichia coli)
chain: MAIERTFSIIKPNAVAKNVIGNIFARFEAAGFKIVGTKMLHLTVEQARGFYAEHDGKPFFDGLVEFMTSGPIVVSVLEGENAVQRHRDLLGATNPANALAGTLRADYADSLTENGTHGSDSVESAAREIAYFFGEGEVCPRTR
Q: With B3 as the molecule, how does the “improvement … by gene complementation” value [2] read?
A: improved overall glycosylation

B4: cmk: E. coli cmk (cytidylate kinase), complemented on plasmid (protein, listed as Escherichia coli)
chain: MTAIAPVITIDGPSGAGKGTLCKAMAEALQWHLLDSGAIYRVLALAALHHHVDVASEDALVPLASHLDVRFVSTNGNLEVILEGEDVSGEIRTQEVANAASQVAAFPRVREALLRRQRAFRELPGLIADGRDMGTVVFPDAPVKIFLDASSEERAHRRMLQLQEKGFSVNFERLLAEIKERDDRDRNRAVAPLVPAADALVLDSTTLSIEQVIEKALQYARQKLALA
Q: Which “improvement … by gene complementation” value [2] does the source give for B4 here?
A: improved overall glycosylation

B5: SEQ ID NO: 72: HvUGT B1 (Hordeum vulgare subsp. Vulgare) (protein)
chain: MAQAESERMRVVMFPWLAHGHINPYLELAKRLIASASGDHHLDVVVHLVSTPANLAPLAHHQTDRLRLVELHLPSLPDLPPALHTTKGLPARLMPVLKRACDLAAPRFGALLDELCPDILVYDFIQPWAPLEAEARGVPAFHFATCGAAATAFFIHCLKTDRPPSAFPFESISLGGVDEDAKYTALVTVREDSTALVAERDRLPLSLERSSGFVAVKSSADIERKYMEYLSQLLGKEIIPTGPLLVDSGGSEEQRDGGRIMRWLDGEEPGSVVFVSFGSEYFMSEHQMAQMARGLELSGVPFLWVVRFPNAEDDARGAARSMPPGFEPELGLVVEGWAPQRRILSHPSCGAFLTHCGWSSVLESMAAGVPMVALPLHIDQPLNANLAVELGAAAARVKQERFGEFTAEEVARAVRAAVKGKEGEAARRRARELQEVVARNNGNDGQIATLLQRMARLCGKDQAVPN
modifications: Hordeum vulgare
Q: What does the source list for B5?
A: bioconversion of Mog. IIE to Mog.III [3]: able to catalyze bioconversion of Mog. IIE to Mog.III; C3 1-2 [4]: No; C3 1-6 [4]: Yes; C24 1-2 [4]: No; C24 1-6 [4]: No

B6: SEQ ID NO: 54: UGT enzyme (Ziziphus jujube) (protein, listed as Ziziphus jujuba)
chain: MMERQRSIKVLMFPWLAHGHISPFLELAKRLTDRNFQIYFCSTPVNLTSVKPKLSQKYSSSIKLVELHLPSLPDLPPHYHTTNGLALNLIPTLKKAFDMSSSSFSTILSTIKPDLLIYDFLQPWAPQLASCMNIPAVNFLSAGASMVSFVLHSIKYNGDDHDDEFLTTELHLSDSMEAKFAEMTESSPDEHIDRAVTCLERSNSLILIKSFRELEGKYLDYLSLSFAKKVVPIGPLVAQDTNPEDDSMDIINWLDKKEKSSTVFVSFGSEYYLTNEEMEEIAYGLELSKVNFIWVVRFPLGQKMAVEEALPKGFLERVGEKGMVVEDWAPQMKILGHSSIGGFVSHCGWSSLMESLKLGVPIIAMPMQLDQPINAKLVERSGVGLEVKRDKNGRIEREYLAKVIREIVVEKARQDIEKKAREMSNIITEKGEEEIDNVVEELAKLCGM
Q: For B6, which “bioconversion of Mog. IIE to Mog.III” value [3] is on record?
A: able to catalyze bioconversion of Mog. IIE to Mog.III

Q: And the “C3 1-2” value [4]?
A: No

Q: And the “C3 1-6” value [4]?
A: Yes

Q: And the “C24 1-2” value [4]?
A: No

Q: What about the “C24 1-6” value [4] of the same molecule?
A: Yes

B7: SEQ ID NO: 13: Synthetic UGT enzyme (MbUGT1,2.2) (protein)
chain: MATKGSSGMSLAERFWLTLSRSSLVVGRSCVEFEPETVPLLSTLRGKPITFLGLMPPLHEGRREDGEDATVRWLDAQPAKSVVYVALGSEVPLGVEKVHELALGLELAGTRFLWALRKPTGVSDADLLPAGFEERTRGRGVVATRWVPQMSILAHAAVGAFLTHCGWNSTIEGLMFGHPLIMLPIFGDQGPNARLIEAKNAGLQVARNDGDGSFDREGVAAAIRAVAVEEESSKVFQAKAKKLQEIVADMACHERYIDGFIQQLRSYKDDSGYSSSYAAAAGMHVVICPWLAFGHLLPCLDLAQRLASRGHRVSFVSTPRNISRLPPVRPALAPLVAFVALPLPRVEGLPDGAESTNDVPHDRPDMVELHRRAFDGLAAPFSEFLGTACADWVIVDVFHHWAAAAALEHKVPCAMMLLGSAEMIASIADERLEHAETESPAAAGQGRPAAAPTFEVARMKLIR
Q: Which “bioconversion of Mog. IIE to Mog.III” value [3] does the source give for B7 here?
A: able to catalyze bioconversion of Mog. IIE to Mog.III

Q: And the “production of siamenoside from Mog. II-E” value [3]?
A: production of substantial amounts of siamenoside

Q: And the “C3 1-2” value [4]?
A: Yes

Q: What about the “C3 1-6” value [4] of the same molecule?
A: Yes

Q: What about the “C24 1-2” value [4] of the same molecule?
A: Yes

Q: And the “C24 1-6” value [4]?
A: Yes
